Results published in patent US20230057904A1 (Chugai, published 2023).
Positions count from the first letter of the chain named.

T1: human CLDN4 (human, UniProt O14493 1-209)
T1 construct: also called hCLDN4; hCLDN4/BaF
T1 sequence: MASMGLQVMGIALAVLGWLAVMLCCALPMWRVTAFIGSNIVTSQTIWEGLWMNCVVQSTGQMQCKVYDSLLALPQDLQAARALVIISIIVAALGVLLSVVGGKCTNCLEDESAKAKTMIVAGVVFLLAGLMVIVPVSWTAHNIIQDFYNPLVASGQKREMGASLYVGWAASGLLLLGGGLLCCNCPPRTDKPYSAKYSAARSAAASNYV

T2: human CLDN3 (human, UniProt O15551 1-220)
T2 construct: also called hCLDN3; hCLDN3/BaF
T2 sequence: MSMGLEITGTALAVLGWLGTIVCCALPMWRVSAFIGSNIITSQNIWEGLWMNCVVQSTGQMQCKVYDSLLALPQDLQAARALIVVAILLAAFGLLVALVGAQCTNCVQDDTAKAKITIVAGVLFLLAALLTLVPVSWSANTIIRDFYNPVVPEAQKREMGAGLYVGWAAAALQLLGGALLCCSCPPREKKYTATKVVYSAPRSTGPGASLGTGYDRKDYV

T3: human CLDN9 (human, UniProt O95484 1-217)
T3 construct: also called hCLDN9; hCLDN9/BaF
T3 sequence: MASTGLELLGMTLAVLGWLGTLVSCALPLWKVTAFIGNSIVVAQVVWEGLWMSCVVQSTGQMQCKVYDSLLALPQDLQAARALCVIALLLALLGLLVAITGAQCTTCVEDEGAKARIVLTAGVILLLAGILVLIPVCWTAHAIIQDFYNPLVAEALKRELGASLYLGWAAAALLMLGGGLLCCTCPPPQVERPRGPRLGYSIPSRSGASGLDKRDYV

T4: mouse CLDN3 (mouse, UniProt Q9Z0G9 1-219)
T4 construct: also called mCLDN3; mCLDN3/FS293
T4 sequence: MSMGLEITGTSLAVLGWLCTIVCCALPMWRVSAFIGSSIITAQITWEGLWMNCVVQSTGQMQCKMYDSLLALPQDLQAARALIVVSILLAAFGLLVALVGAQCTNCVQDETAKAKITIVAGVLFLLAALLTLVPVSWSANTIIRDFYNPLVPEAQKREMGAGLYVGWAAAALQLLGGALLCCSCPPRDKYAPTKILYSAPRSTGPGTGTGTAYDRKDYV

T5: mouse CLDN9 (mouse, UniProt Q9Z0S7 1-217)
T5 construct: also called mCLDN9; mCLDN9/FS293
T5 sequence: T3 sequence with I86V, I124L, A128S, P188S, Q189H, V190F

T6: mouse CLDN6 (mouse, UniProt Q9Z262 1-219)
T6 construct: also called mCLDN6; mCLDN6/FS293
T6 chain: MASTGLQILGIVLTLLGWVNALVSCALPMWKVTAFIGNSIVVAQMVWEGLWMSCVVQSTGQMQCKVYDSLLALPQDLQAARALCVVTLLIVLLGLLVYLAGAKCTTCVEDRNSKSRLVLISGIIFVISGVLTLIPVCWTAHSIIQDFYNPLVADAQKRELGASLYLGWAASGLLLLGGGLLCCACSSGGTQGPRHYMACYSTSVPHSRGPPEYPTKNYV

T7: human CLDN6 (Claudin-6) (human, UniProt P56747 1-220)
T7 construct: also called hCLDN6; human Claudin 6
T7 chain: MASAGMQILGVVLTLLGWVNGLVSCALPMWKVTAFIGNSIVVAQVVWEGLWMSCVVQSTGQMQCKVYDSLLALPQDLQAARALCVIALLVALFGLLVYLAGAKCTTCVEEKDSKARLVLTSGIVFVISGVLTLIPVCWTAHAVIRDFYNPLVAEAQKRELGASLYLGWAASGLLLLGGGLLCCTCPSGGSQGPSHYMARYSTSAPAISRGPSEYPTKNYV

T8: mouse CLDN4 (mouse, UniProt O35054 1-210)
T8 construct: also called mCLDN4; mCLDN4/FS293
T8 sequence: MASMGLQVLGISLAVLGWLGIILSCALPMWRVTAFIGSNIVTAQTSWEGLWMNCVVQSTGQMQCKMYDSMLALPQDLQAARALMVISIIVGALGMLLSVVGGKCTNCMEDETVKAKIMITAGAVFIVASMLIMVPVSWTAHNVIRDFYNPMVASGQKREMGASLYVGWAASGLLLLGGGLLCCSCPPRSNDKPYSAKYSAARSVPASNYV

B1: CS2961 (bispecific antibody, human IgG1, kappa, L234A L235A, N297A)
heavy 1: QVQLVESGGGVVQPGGSLRLSCAASGFTFSSYTMSWVREAPGQGLEWMGTISSGGGRTYYPDSVKGRFTISRDNSKNTLYLQMNSLRDEDTAVYYCARGDYRYDGFAYWGEGTLVTVSSASTKGPSVFPLAPSSKSTSGGTAALGCLVEDYFPEPVTVSWNSGALTSGVHTFPAVLESSGLYSLSSVVTVPSSSLGTQTYICNVNHKPSNTKVDERVEPKSCDKTHTCPPCPAPEAAGGPKVFLFPPKPKDTLMISRTPEVTCVVVDVSHEDPEVKFNWYVDGVEVHNAKTKPREEQYASTYRVVSVLTVLHQDWLNGKEYKCKVSNKGLPSSIEKTISKAKGQPREPQVYTLPPSREEMTKNQVSLTCLVKGFYPSDIAVEWESNGQPENNYKTTPPVLDSDGSFFLYSKLTVDKSRWQQGNVFSCSVMHEALHNHYTQESLSLSP
light 1: DIQMTQSPSSLSASVGDRVTITCRASYNIDSYLAWYQKKPGKAPELLIYYSTLLVDGVPDRFSGSRSGTDFTLTISSLQPEDFATYYCQHYYSIPYTFGQGTKVEIERTVAAPSVFIFPPSDKQLKSGTAKVVCLLNNFYPREAKVQWKVDNALQSGNSKESVTEQDSKDSTYSLSSTLTLSKADYEKHKVYACEVTHQGLSSPVTKSFNRGEC
heavy 2: QVQLVESGGGVVQPGGSLRLSCAASGFTFSNAWMHWVRKAPGKGLEWVAQIKDKSQNYATYVAESVKGRFTISRADSKNSIYLQMNSLKTEDTAVYYCRYVHYAAGYGVDIWGQGTTVTVSSASTKGPSVFPLAPSSKSTSGGTAALGCLVKDYFPEPVTVSWNSGALTSGVHTFPAVLKSSGLYSLSSVVTVPSSSLGTQTYICNVNHKPSNTKVDKRVEPKSCDKTHTCPPCPAPEAAGGPKVFLFPPKPKDTLMISRTPEVTCVVVDVSHEDPEVKFNWYVDGVEVHNAKTKPREEQYASTYRVVSVLTVLHQDWLNGKEYKCKVSNKGLPSSIEKTISKAKGQPREPQVYTLPPSRKEMTKNQVSLTCLVKGFYPSDIAVEWESNGQPENNYKTTPPVLDSDGSFFLYSKLTVDKSRWQQGNVFSCSVMHEALHNHYTQKSLSLSP
light 2: DIVMTQSPLSLPVTPGEPASISCRSSQPLVHSNRNTYLHWYQEKPGQAPRLLIYKVSNRFSGVPDRFSGSGSGTDFTLKISRVEAEDVGVYYCGQGTQVPYTFGQGTKLEIKRTVAAPSVFIFPPSDEQLKSGTAEVVCLLNNFYPREAKVQWKVDNALQSGNSEESVTEQDSKDSTYSLSSTLELSKADYEKHKVYACEVTHQGLSSPVTKSFNRGEC
notes: also called 65HQ39E-SG1212/54L0532Q38K-SK1021//TR01 arm with SG1213/SK1017
B2: KLH/TR01 (bispecific antibody, V domains shown)
VH 1: QVQLQQSGPQLVRPGASVKISCKASGYSFTSYWMHWVNQRPGQGLEWIGMIDPSYSETRLNQKFKDKATLTVDKSSSTAYMQLSSPTSEDSAVYYCALYGNYFDYWGQGTTLTVSS
VL 1: DIQMTQSSSSFSVSLGDRVTITCKASEDIYNRLAWYQQKPGNAPRLLISGATSLETGVPSRFSGSGSGKDYTLSITSLQTEDVATYYCQQYWSTPYTFGGGTKLEVK
VH 2: QVQLVESGGGVVQPGGSLRLSCAASGFTFSNAWMHWVRQAPGKGLEWVAQIKDKSQNYATYVAESVKGRFTISRADSKNSIYLQMNSLKTEDTAVYYCRYVHYAAGYGVDIWGQGTTVTVSS
VL 2: DIVMTQSPLSLPVTPGEPASISCRSSQPLVHSNRNTYLHWYQQKPGQAPRLLIYKVSNRFSGVPDRFSGSGSGTDFTLKISRVEAEDVGVYYCGQGTQVPYTFGQGTKLEIK
notes: made by Fab arm exchange; also called bispecific antibody of anti-keyhole limpet hemocyanin (KLH) antibody paired with the human CD3 antibody TR01; negative control

Assays:
human CLDN4 [1] = biological target: T1, human CLDN4; assay: flow cytometry on hCLDN4/BaF (Ba/F3 transfectant), Alexa Fluor 488 anti-human IgG; histogram against KLH/TR01
human CLDN3 [2] = biological target: T2, human CLDN3; assay: flow cytometry on hCLDN3/BaF (Ba/F3 transfectant), Alexa Fluor 488 anti-human IgG; histogram against KLH/TR01
Experimental: (§1) Amino acid sequence are highly conserved among CLDN3, CLDN4, CLDN6 and CLDN9. Thus we examined CLDN6 binding specificity by FACS analysis. hCLDN6/BaF, hCLDN3/BaF, hCLDN4/BaF, and hCLDN9/BaF were incubated with CS2201, CS2961, AH05/TR01 and 6PHU3/TR01 at 15 micro g/ml. KLH/TR01 generated in Example 2-3 was used as a staining control. Binding of each antibody was detected with Alexa Fluor 488-conjugated anti human IgG (Invitrogen). Dead cells were separated by eFlour 780 (Invitrogen) staining.

human CLDN9 [3] = biological target: T3, human CLDN9; assay: flow cytometry on hCLDN9/BaF (Ba/F3 transfectant), Alexa Fluor 488 anti-human IgG; histogram against KLH/TR01
human CLDN4 [4] = biological target: T1, human CLDN4; assay: flow cytometry on hCLDN4/BaF (Ba/F3 transfectant), Alexa Fluor 488 anti-human IgG
Experimental: as §1

mouse CLDN3 = biological target: T4, mouse CLDN3; assay: flow cytometry, FreeStyle 293-F transfectants expressing mouse CLDN3, anti-human IgG Alexa Fluor 647; MFI
Experimental: (§2) Antibodies were mixed with FreeStyle™ 293-F cells transiently expressed human and mouse CLDN3, 4, 6, and 9 at final concentration of 10 micro g/mL. After 1 hour of incubation, cells were washed by 0.1% BSA containing D-PBS(−), and incubated in 5 micro g/mL of either Goat anti-Human IgG (H+L) Cross-Adsorbed Secondary Antibody, Alexa Fluor 647 (Invitrogen, A21445) or Goat anti-Mouse IgG (H+L) Highly Cross-Adsorbed Secondary Antibody, Alexa Fluor 647 (Invitrogen, A21236), for 1 hour. Cells were then washed with 0.1% BSA containing D-PBS(−), resuspended in 5 micro L of 0.1% BSA containing D-PBS(−), and analyzed by flow cytometer (iQue Screener, intellicyte).

human CLDN3 [5] = biological target: T2, human CLDN3; assay: flow cytometry on hCLDN3/BaF (Ba/F3 transfectant), Alexa Fluor 488 anti-human IgG
Experimental: as §1

mouse CLDN9 = biological target: T5, mouse CLDN9; assay: flow cytometry, FreeStyle 293-F transfectants expressing mouse CLDN9, anti-human IgG Alexa Fluor 647; MFI
Experimental: as §2

mouse CLDN6 = biological target: T6, mouse CLDN6; assay: flow cytometry, FreeStyle 293-F transfectants expressing mouse CLDN6, anti-human IgG Alexa Fluor 647; MFI
Experimental: as §2

human CLDN9 [6] = biological target: T3, human CLDN9; assay: flow cytometry, FreeStyle 293-F transfectants expressing human CLDN9, anti-human IgG Alexa Fluor 647; MFI
Experimental: as §2

human CLDN6 (Claudin-6) = biological target: T7, human CLDN6 (Claudin-6); assay: flow cytometry, FreeStyle 293-F transfectants expressing human CLDN6, anti-human IgG Alexa Fluor 647; MFI
mouse CLDN4 = biological target: T8, mouse CLDN4; assay: flow cytometry, FreeStyle 293-F transfectants expressing mouse CLDN4, anti-human IgG Alexa Fluor 647; MFI
Experimental: as §2

Binder	binding result (human CLDN4 [1])	binding result (human CLDN3 [2])	binding result (human CLDN9 [3])	binding result (human CLDN4 [4])	binding result (mouse CLDN3)	binding result (human CLDN3 [5])	binding result (mouse CLDN9)	binding result (mouse CLDN6)	binding result (human CLDN9 [6])	binding result (human CLDN6 (Claudin-6))	binding result (mouse CLDN4)
B1	no binding (tested: 15 micro g/ml)	no binding (tested: 15 micro g/ml)	no binding (tested: 15 micro g/ml)	–	–	–	–	–	–	–	–
B2	–	–	–	no binding (tested: 15 micro g/ml)	no binding (tested: 10 micro g/mL)	no binding (tested: 15 micro g/ml)	no binding (tested: 10 micro g/mL)	no binding (tested: 10 micro g/mL)	no binding (tested: 10 micro g/mL)	no binding (tested: 10 micro g/mL)	no binding (tested: 10 micro g/mL)
